Paper PMC11969024 (2025)

B1: peptide HD2 (from tick evasin EVA4) / CXCL11 (biotinylated, synthetic) (parent complex)
chain 1: EEDDYTAYAPLTCYFT
chain 2: FPMFKRGRCLCIGPGVKAVKVADIEKASIMYPSNNCDKIEVIITLKENKGQRCLNPKSKQARLIIKKVERKNF
B2: peptide HD2 (from tick evasin EVA4) / CCL4 (biotinylated, synthetic) (parent complex)
chain 1: EEDDYTAYAPLTCYFT
chain 2: APMGSDPPTACCFSYTARKLPRNFVVDYYETSSLCSQPAVVFQTKRSKQVCADPSESWVQEYVYDLELN

Variants of: B1

Compared with chain 1 EEDDYTAYAPLQCYFT [chain 1 T12Q], chain 1 EEDDYTAYAPLFCYFT [chain 1 T12F] is higher in enrichment: -3.76 log2 (difference from the parental peptide) for the first, -2.38 log2 (difference from the parental peptide) for the second.

Compared with chain 1 EEDDYTAYAPLECYFT [chain 1 T12E], chain 1 EEDDITAYAPLTCYFT [chain 1 Y5I] is lower in enrichment: -0.922 log2 (difference from the parental peptide) for the first, -1.31 log2 (difference from the parental peptide) for the second.

First: chain 1 EEDDNTAYAPLTCYFT [chain 1 Y5N]
Second: chain 1 EESDYTAYAPLTCYFT [chain 1 D3S]
The enrichment of the first is lower: -4.84 log2 (difference from the parental peptide) for the first, -4.11 log2 (difference from the parental peptide) for the second.

First: chain 1 EEDDYRAYAPLTCYFT [chain 1 T6R]
Second: chain 1 EEDDYTAYAPLTVYFT [chain 1 C13V]
The enrichment of the first is higher: 0.535 log2 (difference from the parental peptide) for the first, -1.39 log2 (difference from the parental peptide) for the second.

Compared with chain 1 EEDDYTAYAPLTFYFT [chain 1 C13F], chain 1 EMDDYTAYAPLTCYFT [chain 1 E2M] is higher in enrichment: -5.76 log2 (difference from the parental peptide) for the first, 0.915 log2 (difference from the parental peptide) for the second.

First: chain 1 ETDDYTAYAPLTCYFT [chain 1 E2T]
Second: chain 1 EEDDYTLYAPLTCYFT [chain 1 A7L]
The enrichment of the first is lower: -4.37 log2 (difference from the parental peptide) for the first, 0.413 log2 (difference from the parental peptide) for the second.

Going from chain 1 EEDDYTAYAPTTCYFT [chain 1 L11T] to chain 1 EEDDYTAYAPLTCYTT [chain 1 F15T], the enrichment rises from -1.48 log2 (difference from the parental peptide) to -0.0704 log2 (difference from the parental peptide).

Going from chain 1 EEDDYTAYAPLTCYMT [chain 1 F15M] to chain 1 EEDDYTANAPLTCYFT [chain 1 Y8N], the enrichment rises from -0.451 log2 (difference from the parental peptide) to 0.757 log2 (difference from the parental peptide).

Going from chain 1 EEDDYTASAPLTCYFT [chain 1 Y8S] to chain 1 EEDDYTAYAPLTCYFL [chain 1 T16L], the enrichment rises from -2.63 log2 (difference from the parental peptide) to 0.663 log2 (difference from the parental peptide).

Variants of: B2

Going from chain 1 EEDIYTAYAPLTCYFT [chain 1 D4I] to chain 1 EEDRYTAYAPLTCYFT [chain 1 D4R], the enrichment falls from -3.77 log2 (difference from the parental peptide) to -5.66 log2 (difference from the parental peptide).

First: chain 1 EEDEYTAYAPLTCYFT [chain 1 D4E]
Second: chain 1 EEDDYDAYAPLTCYFT [chain 1 T6D]
The enrichment of the first is lower: 0.269 log2 (difference from the parental peptide) for the first, 3.6 log2 (difference from the parental peptide) for the second.

First: chain 1 EEDDYIAYAPLTCYFT [chain 1 T6I]
Second: chain 1 EEDDYPAYAPLTCYFT [chain 1 T6P]
The enrichment of the first is lower: -5.92 log2 (difference from the parental peptide) for the first, -5.36 log2 (difference from the parental peptide) for the second.

Going from chain 1 EEDDYTAYAPLTCIFT [chain 1 Y14I] to chain 1 EEDDYTAYAPLTCTFT [chain 1 Y14T], the enrichment falls from -1.56 log2 (difference from the parental peptide) to -1.65 log2 (difference from the parental peptide).

Compared with chain 1 EEDDYTAYAPMTCYFT [chain 1 L11M], chain 1 EEMDYTAYAPLTCYFT [chain 1 D3M] is lower in enrichment: 2.23 log2 (difference from the parental peptide) for the first, -2.83 log2 (difference from the parental peptide) for the second.

Going from chain 1 EEVDYTAYAPLTCYFT [chain 1 D3V] to chain 1 EELDYTAYAPLTCYFT [chain 1 D3L], the enrichment rises from -3.36 log2 (difference from the parental peptide) to -3.31 log2 (difference from the parental peptide).

Going from chain 1 EEFDYTAYAPLTCYFT [chain 1 D3F] to chain 1 EEADYTAYAPLTCYFT [chain 1 D3A], the enrichment falls from -2.01 log2 (difference from the parental peptide) to -2.51 log2 (difference from the parental peptide).

Compared with chain 1 EEDDYTAYAPLACYFT [chain 1 T12A], chain 1 EEDDYTAYAPLTCYPT [chain 1 F15P] is higher in enrichment: 0.00832 log2 (difference from the parental peptide) for the first, 1.32 log2 (difference from the parental peptide) for the second.

First: chain 1 EEDDYTAYAPLTCYGT [chain 1 F15G]
Second: chain 1 EEDDYTAYAPLTCYMT [chain 1 F15M]
The enrichment of the first is lower: -2.79 log2 (difference from the parental peptide) for the first, 1.08 log2 (difference from the parental peptide) for the second.

Compared with chain 1 EEDDLTAYAPLTCYFT [chain 1 Y5L], chain 1 EEDDDTAYAPLTCYFT [chain 1 Y5D] is lower in enrichment: -1.57 log2 (difference from the parental peptide) for the first, -5.03 log2 (difference from the parental peptide) for the second.

Compared with chain 1 EEDDYTAYAWLTCYFT [chain 1 P10W], chain 1 EEDDYTAYALLTCYFT [chain 1 P10L] is lower in enrichment: -7.42 log2 (difference from the parental peptide) for the first, -9.07 log2 (difference from the parental peptide) for the second.

Going from chain 1 EEDDYTAYAFLTCYFT [chain 1 P10F] to chain 1 EEDDYTAYAVLTCYFT [chain 1 P10V], the enrichment falls from -7.39 log2 (difference from the parental peptide) to -9.95 log2 (difference from the parental peptide).

First: chain 1 EEDDYTEYAPLTCYFT [chain 1 A7E]
Second: chain 1 EEDDYTYYAPLTCYFT [chain 1 A7Y]
The enrichment of the first is higher: 2.68 log2 (difference from the parental peptide) for the first, -1.83 log2 (difference from the parental peptide) for the second.

Going from chain 1 EEDDYTNYAPLTCYFT [chain 1 A7N] to chain 1 EEDDYTAHAPLTCYFT [chain 1 Y8H], the enrichment falls from 0.608 log2 (difference from the parental peptide) to -0.426 log2 (difference from the parental peptide).

First: chain 1 ENDDYTAYAPLTCYFT [chain 1 E2N]
Second: chain 1 EVDDYTAYAPLTCYFT [chain 1 E2V]
The enrichment of the first is lower: -2.2 log2 (difference from the parental peptide) for the first, -1.26 log2 (difference from the parental peptide) for the second.

Going from chain 1 EMDDYTAYAPLTCYFT [chain 1 E2M] to chain 1 TEDDYTAYAPLTCYFT [chain 1 E1T], the enrichment rises from -2.17 log2 (difference from the parental peptide) to -0.507 log2 (difference from the parental peptide).

Compared with chain 1 LEDDYTAYAPLTCYFT [chain 1 E1L], chain 1 EEDDYTAYAPLTVYFT [chain 1 C13V] is lower in enrichment: -1.55 log2 (difference from the parental peptide) for the first, -2.03 log2 (difference from the parental peptide) for the second.

First: chain 1 EEDDYTAYAPLTQYFT [chain 1 C13Q]
Second: chain 1 EEDDYTAYAPLTCYFY [chain 1 T16Y]
The enrichment of the first is lower: -7.94 log2 (difference from the parental peptide) for the first, -1.43 log2 (difference from the parental peptide) for the second.

Going from chain 1 EEDDYTAYAPLTCYFK [chain 1 T16K] to chain 1 EEDDYTAYAPLTCYFQ [chain 1 T16Q], the enrichment rises from 0.843 log2 (difference from the parental peptide) to 1.49 log2 (difference from the parental peptide).
